The target of the assay is T1, SMC1 (human, UniProt Q14683 1-1233).
T1 sequence: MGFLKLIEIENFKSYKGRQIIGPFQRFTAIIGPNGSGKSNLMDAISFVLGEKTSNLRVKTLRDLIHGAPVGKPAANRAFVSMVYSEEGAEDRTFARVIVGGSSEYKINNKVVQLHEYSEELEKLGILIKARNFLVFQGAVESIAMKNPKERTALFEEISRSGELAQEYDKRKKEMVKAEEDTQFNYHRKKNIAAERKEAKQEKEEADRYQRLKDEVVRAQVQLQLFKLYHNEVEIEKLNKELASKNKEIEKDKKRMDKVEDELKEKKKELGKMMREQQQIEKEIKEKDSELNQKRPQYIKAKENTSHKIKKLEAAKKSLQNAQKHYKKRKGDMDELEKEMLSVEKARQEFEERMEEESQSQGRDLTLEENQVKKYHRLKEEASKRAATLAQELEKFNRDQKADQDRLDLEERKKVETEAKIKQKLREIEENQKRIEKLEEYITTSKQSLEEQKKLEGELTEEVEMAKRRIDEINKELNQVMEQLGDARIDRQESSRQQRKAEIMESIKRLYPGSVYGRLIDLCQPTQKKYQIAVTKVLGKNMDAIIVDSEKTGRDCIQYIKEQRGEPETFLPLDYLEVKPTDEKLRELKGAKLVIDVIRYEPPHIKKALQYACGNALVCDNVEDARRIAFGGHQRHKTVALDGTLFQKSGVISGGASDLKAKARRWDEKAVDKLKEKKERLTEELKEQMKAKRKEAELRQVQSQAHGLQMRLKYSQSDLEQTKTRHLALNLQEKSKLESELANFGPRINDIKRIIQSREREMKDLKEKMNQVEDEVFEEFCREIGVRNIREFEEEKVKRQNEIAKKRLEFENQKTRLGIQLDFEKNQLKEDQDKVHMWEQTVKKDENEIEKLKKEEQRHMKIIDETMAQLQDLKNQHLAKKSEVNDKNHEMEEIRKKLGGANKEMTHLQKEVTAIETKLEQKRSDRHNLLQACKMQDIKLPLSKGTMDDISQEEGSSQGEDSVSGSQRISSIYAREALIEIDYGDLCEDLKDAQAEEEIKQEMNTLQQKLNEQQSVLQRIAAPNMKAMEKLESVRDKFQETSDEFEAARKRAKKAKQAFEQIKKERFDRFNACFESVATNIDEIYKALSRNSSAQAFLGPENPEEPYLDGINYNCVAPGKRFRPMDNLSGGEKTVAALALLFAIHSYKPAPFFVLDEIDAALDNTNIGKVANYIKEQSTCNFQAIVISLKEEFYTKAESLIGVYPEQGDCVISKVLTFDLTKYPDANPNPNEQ
The experiment in a line: mass photometry.

One molecule from publication PMC8563363 (Cell, 2021) can be followed below.

B1: SMC3 with a C-terminal Flag tag (natural protein)
chain: MYIKQVIIQGFRSYRDQTIVDPFSSKHNVIVGRNGSGKSNFFYAIQFVLSDEFSHLRPEQRLALLHEGTGPRVISAFVEIIFDNSDNRLPIDKEEVSLRRVIGAKKDQYFLDKKMVTKNDVMNLLESAGFSRSNPYYIVKQGKINQMATAPDSQRLKLLREVAGTRVYDERKEESISLMKETEGKREKINELLKYIEERLHTLEEEKEELAQYQKWDKMRRALEYTIYNQELNETRAKLDELSAKRETSGEKSRQLRDAQQDARDKMEDIERQVRELKTKISAMKEEKEQLSAERQEQIKQRTKLELKAKDLQDELAGNSEQRKRLLKERQKLLEKIEEKQKELAETEPKFNSVKEKEERGIARLAQATQERTDLYAKQGRGSQFTSKEERDKWIKKELKSLDQAINDKKRQIAAIHKDLEDTEANKEKNLEQYNKLDQDLNEVKARVEELDRKYYEVKNKKDELQSERNYLWREENAEQQALAAKREDLEKKQQLLRAATGKAILNGIDSINKVLDHFRRKGINQHVQNGYHGIVMNNFECEPAFYTCVEVTAGNRLFYHIVDSDEVSTKILMEFNKMNLPGEVTFLPLNKLDVRDTAYPETNDAIPMISKLRYNPRFDKAFKHVFGKTLICRSMEVSTQLARAFTMDCITLEGDQVSHRGALTGGYYDTRKSRLELQKDVRKAEEELGELEAKLNENLRRNIERINNEIDQLMNQMQQIETQQRKFKASRDSILSEMKMLKEKRQQSEKTFMPKQRSLQSLEASLHAMESTRESLKAELGTDLLSQLSLEDQKRVDALNDEIRQLQQENRQLLNERIKLEGIITRVETYLNENLRKRLDQVEQELNELRETEGGTVLTATTSELEAINKRVKDTMARSEDLDNSIDKTEAGIKELQKSMERWKNMEKEHMDAINHDTKELEKMTNRQGMLLKKKEECMKKIRELGSLPQEAFEKYQTLSLKQLFRKLEQCNTELKKYSHVNKKALDQFVNFSEQKEKLIKRQEELDRGYKSIMELMNVLELRKYEAIQLTFKQVSKNFSEVFQKLVPGGKATLVMKKGDVEGSQSQDEGEGSGESERGSGSQSSVPSVDQFTGVGIRVSFTGKQGEMREMQQLSGGQKSLVALALIFAIQKCDPAPFYLFDEIDQALDAQHRKAVSDMIMELAVHAQFITTTFRPELLESADKFYGVKFRNKVSHIDVITAEMAKDFVEDDTTHG
Regarding B1, the binding result is listed as “binds”.
